{"source": "patent US20020137076", "target": "RNase A (UniProt P61823)", "sequence (P61823 27-150)": "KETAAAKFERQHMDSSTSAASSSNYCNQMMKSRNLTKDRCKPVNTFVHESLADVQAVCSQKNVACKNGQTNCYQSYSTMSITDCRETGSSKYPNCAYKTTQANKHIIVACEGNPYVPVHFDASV", "assay": "inhibition"}
{"substance": "polyG", "values": [{"measurement": "Ki", "setting": "2 ug/ml polyG, polyC substrate, 100 mM MES, 100 mM NaCl pH 6.0, non-competitive", "value": 10, "unit": "nM"}, {"measurement": "Ki", "setting": "20 ug/ml polyG, polyC substrate, 100 mM MES, 100 mM NaCl pH 6.0, non-competitive", "value": 87.3, "unit": "nM"}, {"measurement": "Ki", "setting": "Dixon, 40 mM Tris-HCl pH 7.9, 6 mM MgCl2, 10 mM NaCl, 2 mM spermidine", "value": 40, "unit": "nM"}, {"measurement": "Ki", "setting": "Dixon, 40 mM Tris-HCl pH 7.9, 6 mM MgCl2, 10 mM NaCl, no spermidine", "value": 10, "unit": "nM"}]}
